Laboratory results as given in the supplement of paper PMC9170038.

Tested on: MS2 coat protein
Assay: apparent KD of MS2 coat protein; designed switch direction (-1 OFF switch, 1 ON switch): 1; higher = weaker reporter binding
Procedure, shortened: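 An oligonucleotide input, 200 uM small-molecule ligand, or no input was present during titration of SNAP-549-labelled MS2 coat protein, which was doubled from 0.7 or 1.5 nM to 3 µM. Designed RNA switches had been transcribed on Illumina chips by stalled E. coli RNA polymerase. Apparent KD per design is the median over clusters of curves fitted to normalised cluster fluorescence.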

[1] = input ligand: microRNA oligo, concentration not stated
[2] = Eterna round: R95, input ligand: FMN 200 uM
[3] = Eterna round: R95, input ligand: microRNA oligo, concentration not stated
[4] = Eterna round: R95, input ligand: none

Sequence	apparent KD of MS2 coat protein (input ligand: FMN 200 uM) [nM]	apparent KD of MS2 coat protein [1] [nM]	apparent KD of MS2 coat protein (input ligand: none) [nM]	apparent KD of MS2 coat protein [2] [nM]	apparent KD of MS2 coat protein [3] [nM]	apparent KD of MS2 coat protein [4] [nM]
AAAAUGGUAUGUUACAUGAGGAUCACCCAUGUACUCUAAUCUGAGGAUAUGGGAAUGUAGAAGAACCAGAAGGCAGACAUCCAA [AK SSNG3-V2-22.1] (Eterna round: R96, puzzle: Same State NG 3)	149	70.2	86			
GUGGCGGGUUGAGGAUAUUGGUUGCCUCUGUUUUACAUGAGGAUCACCCAUGUGGGUUGCGGUUUCGAGAAGGGAGGUUGCUGG [salish99_SSNG2_r04_054] (Eterna round: R96, puzzle: Same State NG 2)	323	420	399			
AGUCCAGCCUGAGCUGGACAAAUGCUUGUACAUGAGGAUCACCCAUGUAUGUACAAGCUUUUUGCUCGUCUUAAUAA [JL zipper 68] (Eterna round: R96, puzzle: Sensor for hsa-mir-208a)	263	18.2	223			
AGUCCAGCCUGAGCUGGACAAAAGCAUGUACAUGAGGAUCACCCAUGUCAUGUACAAGCUUUUUGCUCGUCUUGAUA [Zipper 49 - 8] (puzzle: Sensor for hsa-mir-208a)				416	16.7	435
AAUUAAGAUCAAGGAUAUCACGUCGAUUAGACGUGAGAAGGUGAUCAUAACAUGAGGAUCACCCAUGUAUUACAUGAAUUAAUU [SSNG1/2-B2] (Eterna round: R96, puzzle: Same State NG 1)	85.7	330	397			
UUUAGUUGCGCGCAGGAUAUGUAUUAAUAUACAUGAGGAUCACCCAUGUGAGAUCGAAUAGAUCUACAGAAGGGCGAAUCGCGAC [Laonerce - 26] (puzzle: Same State 2)				32.9	168	611
GUAAAACAUGAGGAUCACCCAUGUAAUAAUAUGGGAGGAUAUGCGAAUUUAAUUAUUUAAGCAGAAGGCCUAAAUG [Mat - Same State 1 - D99] (puzzle: Same State 1)				21.2	172	149
UUGCGCUGUCGAGAGGAUAUGCGGUGUUGGACAUGAGGAUCACCCAUGUUAGCGAUUGCUUUACGGUAGAAGGCUCUUCAGCUGC [salish99_ss2_r3_098] (puzzle: Same State 2)					63.5	
CAGCGCUGUCGAGAGGAUAUGCAGUGAUGGACAUGAGGAUCACCCAUGUUAGCGAUAGCAUUACGGUAGAAGGCUCUACAGCUGC [Soteed - 13] (puzzle: Same State 2)					16.4	
UUGCUUCUCGUAGGAUAUGUAGGAUAUGCCUACAUGAGGAUCACCCAUGUUCGCAUGGCAGAAGGACAGAAGGACGAUCACCCU [pwkr ssNG2 2FMN + 1F5.8] (Eterna round: R96, puzzle: Same State NG 2)	43.5	88.1	472			
AAACACAGCAUAACGCUGUGACAUGAGGAUCACCCAUGUACACAGGAUAUCAUGGCAUAACGCCAUGAGAAGGGUGAUCAAGAC [Arxeerte] (Eterna round: R96, puzzle: Same State NG 3)	20.5	2.71	55.3			
GGUAGGUUACUACCAAUCUACAUGAGGAUCACCCAUGUGUAGGAGGAUAUGGUACCUAUUUGGUACCAGAAGGCCUAAUUAAUU [Fiskers NG3ss - 9] (Eterna round: R96, puzzle: Same State NG 3)	117	96.7	111			
GAGGAACAGGCCAACAUGAGGAUCACCCAUGUCCUCGCAUUUCAGGAUAUCUGGAAGAAGAAGAAAGAGAAGGGAAGGUGAAGC [AK SSNG3-V2-34.1] (Eterna round: R96, puzzle: Same State NG 3)	114	101	112			
GUUAAACAUGAGGAUCACCCAUGUCAAUGUAGUCGAGGAUAUGGGUAGCUAUGAGGCGUACUAGAAGGCGAGGAGU [Mat - Same State 1 - Mod of JL - D16] (puzzle: Same State 1)				194	57.1	164
CUCCGGAUUGACAUGAGGAUCACCCAUGUGCCCUCAUUAAAGUAGGAUAUACCUCGCAGUCGGGAGUAGAAGGACUUUAUGAGU [Eternabot solution 36] (Eterna round: R96, puzzle: Same State NG 3)	204	91.1	213			
UCAGUCAUGUAAGGAUAUGCAGCCGAAACGGCUGCAGAAGGUACUAUAAUUACAUGAGGAUCACCCAUGUUAUAAAUAAAAUAU [Mat - Same State NG 1 - JL mod - D66] (Eterna round: R96, puzzle: Same State NG 1)	23.1	43	62.6			

Sequence	apparent KD of MS2 coat protein (input ligand: FMN 200 uM) [nM]	apparent KD of MS2 coat protein [1] [nM]	apparent KD of MS2 coat protein (input ligand: none) [nM]	apparent KD of MS2 coat protein [2] [nM]	apparent KD of MS2 coat protein [3] [nM]	apparent KD of MS2 coat protein [4] [nM]
UAGUGCAUUAGAGGAUAUUCUUACGACACGAGUAAGACAUGAGGAUCACCCAUGUCGUGACAUGGGAAGAAGGCUGAUGUGCUA [Omei SS(NG)2 Bv6] (Eterna round: R96, puzzle: Same State NG 2)	12	27.1	35.8			
ACGCAGCUGGGUGAGGAUAUCGGUGGUAAAACAUGAGGAUCACCCAUGUCCGAAGCUCGGACUUCCGAGAAGGCGCCCGGCCGCA [Atbeatve] (puzzle: Same State 2)				14.6	65.2	83.1
GCUAGGAAUAAAGCCAACAUGAGGAUCACCCAUGUAUGUUGGUAGGAUAUCGUAUGCAAAGCAUACGAGAAGGGCUAACCUAGC [Mat - Same State NG 3 - JL Mod - D69] (Eterna round: R96, puzzle: Same State NG 3)	71.4	49.5	64.8			
CGCGGUAAGGAAGGAUAUGGGACGAAAACGUACCUAGAAGGUCCACAUGAGGAUCACCCAUGUACCAAGAAAGCCGCUCAAUUA [Uszabeon] (Eterna round: R96, puzzle: Same State NG 1)	89.8	260	334			
GGAGCCAAGGCAGGAUAUUCAUAUUAAAUGACAUGAGGAUCACCCAUGUUGGCCAGAAGGCCAUGGGAGAAGGGCCAUGGCUCG [Xeonanis - 13 mod23] (Eterna round: R96, puzzle: Same State NG 2)	41.3	127	166			
GGUAGGUUACUACCAACACAUGAGGAUCACCCAUGUUUUGGGAAGGAUAUGGUACCUAUUUGGUACCAGAAGGUCCAGUUAAUU [Fiskers NG3ss - 17] (Eterna round: R96, puzzle: Same State NG 3)	47.4	66.6	69.5			
AGUAGUGUAACAUGAGGAUCACCCAUGUAAGUAGAUGUAACCUAGGAUAUGGAUGAUAUGUUAGUCCAGAAGGAGGAUUGAAUA [JR_SSNG3_Sub037] (Eterna round: R96, puzzle: Same State NG 3)	15.5	20.6	44.4			
GUACAGAUCAGAGGAUAUCACGUCGAUUAGACGUGAGAAGGCUGAUCACACAUGAAUAUUAGUACAUGAGGAUCACCCAUGUAC [SSNG1/15-A2] (Eterna round: R96, puzzle: Same State NG 1)	14	12.5	16.7			
GUUACAUGAGGAUCACCCAUGUGUGUGUGGGAGUAAGUGUCUUAGGAUAUCUAUGAUUUAAGUUAAGAGAAGGAAGAUUGUUGU [SS-NG3-LRO01] (Eterna round: R96, puzzle: Same State NG 3)	479	261	395			
GGUGCGAAUAAAGCCUACAUGAGGAUCACCCAUGUAUGUAGGCAGGAUAUCGUAUGCAAAGCAUACGAGAAGGGCUGUCGCACC [Mat - Same State NG 3 - JL Mod - D47] (Eterna round: R96, puzzle: Same State NG 3)	30.1	56.9	85.8			
AUCCUACAUGAGGAUCACCCAUGUGACGCCUCAAUAGGAUAUCGGGCCCACAGUCGGGAACGAGAAGGAUUGAAGC [Beatonce] (puzzle: Same State 1)				70	170	669
GUGGCGGGUUGAGGAUAUUGGUUGCCGCUGUUUUACAUGAGGAUCACCCAUGUGGGUUGCGGUUUCGAGAAGGGAGGUUGCUGG [salish99_SSNG2_r04_055] (Eterna round: R96, puzzle: Same State NG 2)	14.2	11.7	17.6			
ACGUGGGUAUCACAGGAUAUACUCAUAACUACAUGAGGAUCACCCAUGUAGCGGUAUUCCGGUGCGUAGAAGGGUGAUGGACCAC [Same State 2 - Mod of Artece] (puzzle: Same State 2)				13.3	11.6	19.9
GCGAGCGUACUUGCAGACAUGAGGAUCACCCAUGUAACUGGACAGGAUAUGGUACCGUUUCGGUACCAGAAGGGUUUACAUGUU [JL SSNG3 3.51] (Eterna round: R96, puzzle: Same State NG 3)	20.2	27.2	47.7			
UAGAGAGGAAGCGAGGAUAUCGUGUUAGGUACAUGAGGAUCACCCAUGUUUUAAGUAGAGAUAGGCGAGAAGGCGCAGGAGAAAA [JR_SS2_Sub088] (puzzle: Same State 2)				28.6	26.7	30.2
